By Kd is commonly meant the equilibrium constant for the complex coming apart.

Test [1] concerns the target GST-TOG1/2. The experiment in a line: pull-down.
In test [2] the target is wild-type TUBB3 (recombinant α/β-tubulin heterodimer with human β-tubulin isotype III) (Homo sapiens) (UniProt P68363). The experiment in a line: TIRF microscopy single-filament polymerization assay.
Test [3] has as its target TUBB3-D417H (recombinant α/β-tubulin heterodimer with human TUBB3 D417H) (Homo sapiens) (UniProt P68363). Described as above.

In test [1], “wild-type TUBB3 (recombinant α/β-tubulin heterodimer with human β-tubulin isotype III) (from UniProt P68363-1 1-437; Q13509-1 1-426) (complex)” gave a Kd of 400 nM. Moreover, in test [2], the apparent association rate constant k+ of tubulin subunits at plus-ends worked out at 1.7e+06 M⁻¹ s⁻¹ and the apparent dissociation rate constant k- of tubulin subunits at plus-ends was found to be 1.1 s⁻¹.

For the substance “TUBB3-D417H (recombinant α/β-tubulin heterodimer with human TUBB3 D417H) (from UniProt P68363-1 1-437; Q13509-1 1-426) (complex)”, the Kd in test [1] is 1200 nM. Further, in test [3], the apparent association rate constant k+ of tubulin subunits at minus-ends was 1.4e+06 M⁻¹ s⁻¹ and the apparent dissociation rate constant k- of tubulin subunits at minus-ends came out at 1.2 s⁻¹.

The record behind these values is paper PMC4832424.
